Results on one molecule are retold here after patent US20190367620A1 (Merck KGaA, published 2019).

What all share (test): SPR as in Example 1.8
The target in assay [1] is T1, FGFR1 D2 point mutant T100A (human, UniProt P11362 22-254).
T1 chain: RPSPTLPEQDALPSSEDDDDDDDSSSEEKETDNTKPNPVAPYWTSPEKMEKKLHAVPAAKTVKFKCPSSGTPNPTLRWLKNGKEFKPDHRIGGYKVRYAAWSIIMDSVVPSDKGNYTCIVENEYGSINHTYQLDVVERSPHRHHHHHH
As to the method:
(§1) Binding affinities of anti-FGFR1 antibodies to FGFR1 were measured by Surface Plasmon Resonance (SPR) using a GE Healthcare BIAcore 4000 instrument as follows. Goat anti-human Fc antibody (Jackson ImmunoResearch Laboratories #109-005-098) was first immobilized on BIAcore carboxymethylated dextran CM5 chip using direct coupling to free amino groups following the procedure described by the manufacturer. Antibodies were then captured on the CM5 biosensor chip to achieve approximately 200 response units (RU). Binding measurements were performed using the running HBS-EP+ buffer. A 2-fold dilution series of His-tagged FGFR1 proteins were injected at a flow rate of 30 μl/min at 25° C. Association rates (kₒₙ, per mol/s) and dissociation rates (koff, per s) were calculated using a simple 1:1 Langmuir binding model (Biacore 4000 Evaluation Software). The equilibrium dissociation constant (KD, mol) was calculated as the ratio of koff/kₒₙ.
(§2) To obtain a finer, residue-level mapping of the epitope and to complement the HD exchange data, molecular modelling and manual inspection of the crystal structure of FGFR1 [(Beenken et al. 2012); PDB record 3OJV] was used to select solvent exposed residues within and around the epitope identified by HD exchange. The selected residues were mutated either to alanine (large to small) or to glycine if the selected residue was alanine. In total 35 point mutants were designed, expressed and purified in HEK cells, and tested for binding to mAb #A08 using surface plasmon resonance as described in Example 1.8. The affinity of the antibody for wild-type and each mutant was determined and used to calculate the contribution of each epitope residue to the binding energy.

For assay [2], the target named is T2, FGFR1 D2 point mutant A55G (human, UniProt P11362 22-254).
T2 chain: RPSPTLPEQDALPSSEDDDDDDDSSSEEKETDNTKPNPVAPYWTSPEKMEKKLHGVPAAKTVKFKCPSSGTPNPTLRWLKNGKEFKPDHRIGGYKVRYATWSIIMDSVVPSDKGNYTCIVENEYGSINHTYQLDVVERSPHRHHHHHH
As for the experimental part:
as §1, §2

The target of assay [3] is T3, FGFR1 D2 point mutant S107A (human, UniProt P11362 22-254).
T3 chain: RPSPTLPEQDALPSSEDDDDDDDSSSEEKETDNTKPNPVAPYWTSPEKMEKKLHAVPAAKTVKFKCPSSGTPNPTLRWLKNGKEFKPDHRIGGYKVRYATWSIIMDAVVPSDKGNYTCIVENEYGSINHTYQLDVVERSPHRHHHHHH
As to the method: as §1, §2

Assay [4] deals with T4, FGFR1 D2 point mutant L53A (human, UniProt P11362 22-254).
T4 chain: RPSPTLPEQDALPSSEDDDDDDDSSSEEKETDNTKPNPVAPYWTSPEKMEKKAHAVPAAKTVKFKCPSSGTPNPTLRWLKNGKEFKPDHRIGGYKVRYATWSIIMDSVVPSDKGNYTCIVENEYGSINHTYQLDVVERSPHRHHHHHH
As for the experimental part: as §1, §2

Assay [5] concerns the target T5, FGFR1 D2 point mutant H89A (human, UniProt P11362 22-254).
T5 chain: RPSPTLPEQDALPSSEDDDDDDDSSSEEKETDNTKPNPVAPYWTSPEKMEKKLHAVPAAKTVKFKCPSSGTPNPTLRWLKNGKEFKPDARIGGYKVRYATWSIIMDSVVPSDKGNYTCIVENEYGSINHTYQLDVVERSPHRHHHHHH
As for the experimental part:
as §1, §2

Assay [6] has as its target T6, FGFR1 D2 point mutant V96A (human, UniProt P11362 22-254).
T6 chain: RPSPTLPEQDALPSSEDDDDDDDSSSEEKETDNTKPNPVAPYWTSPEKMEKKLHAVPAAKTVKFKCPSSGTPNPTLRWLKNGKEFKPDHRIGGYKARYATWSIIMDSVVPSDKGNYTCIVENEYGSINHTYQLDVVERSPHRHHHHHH
As to the method:
as §1, §2

In assay [7] the target is T7, FGFR1 D2 point mutant D88A (human, UniProt P11362 22-254).
T7 chain: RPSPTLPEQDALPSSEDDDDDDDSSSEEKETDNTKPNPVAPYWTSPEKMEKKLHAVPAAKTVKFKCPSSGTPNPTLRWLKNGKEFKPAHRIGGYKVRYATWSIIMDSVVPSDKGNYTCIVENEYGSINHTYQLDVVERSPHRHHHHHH
As for the experimental part: as §1, §2

For assay [8], the target named is T8, FGFR1 D2 point mutant K51A (human, UniProt P11362 22-254).
T8 chain: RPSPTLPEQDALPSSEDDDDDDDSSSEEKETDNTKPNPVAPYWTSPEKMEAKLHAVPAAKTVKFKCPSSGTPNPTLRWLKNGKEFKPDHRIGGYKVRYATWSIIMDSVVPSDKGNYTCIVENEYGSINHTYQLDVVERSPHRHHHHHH
As for the experimental part: as §1, §2

In assay [9] the target is T9, FGFR1 D2 point mutant S102A (human, UniProt P11362 22-254).
T9 chain: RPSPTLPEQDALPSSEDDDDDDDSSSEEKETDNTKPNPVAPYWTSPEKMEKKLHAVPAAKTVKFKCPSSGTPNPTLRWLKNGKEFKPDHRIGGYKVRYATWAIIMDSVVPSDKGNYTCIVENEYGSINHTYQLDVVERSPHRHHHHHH
As to the method: as §1, §2

Assay [10] deals with T10, FGFR1 D2 point mutant Y94A (human, UniProt P11362 22-254).
T10 construct: Uncharacteristic melting curve
T10 chain: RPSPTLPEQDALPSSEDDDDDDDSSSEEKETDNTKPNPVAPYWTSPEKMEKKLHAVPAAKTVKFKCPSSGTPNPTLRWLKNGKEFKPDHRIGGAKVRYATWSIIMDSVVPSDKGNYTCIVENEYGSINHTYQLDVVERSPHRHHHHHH
As for the experimental part:
as §1, §2

For assay [11], the target named is T11, FGFR1 D2 point mutant I104A (human, UniProt P11362 22-254).
T11 chain: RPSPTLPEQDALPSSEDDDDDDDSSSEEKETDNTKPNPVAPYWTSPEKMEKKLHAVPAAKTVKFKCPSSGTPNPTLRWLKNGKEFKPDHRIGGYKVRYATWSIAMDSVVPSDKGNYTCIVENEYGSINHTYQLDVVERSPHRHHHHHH
As for the experimental part: as §1, §2

B1: mAb #A08 (antibody, V domains shown)
VH: EVQLQESGPGLVKPSGTLSLTCAVSGGSISSNNWWSWVRQPPGKGLEWIGEIYHSGSTSYNPSLKSRVTISVDKSKNQFSLKLNSVTAADTAVYYCARGTDWFDPWGQGTLVTVSS
VL: QAVLTQPPSVSVAPGQTARITCGGNNIGSESVHWYQQKPGQAPVLVVYDDSDRPSGIPERFSGSNSGNTATLTISRVEAGDEADYYCQVWDSTSDHRVFGGGTKLTVL
notes: Only variable domains are tied to the name mAb #A08 (hit); also called #A08 hit; mAb #08
One may read the Kd as the free concentration of one partner at which half of the binding sites on the other are occupied at equilibrium, for simple one-to-one binding. Read a high Kd as lower affinity. B1: the Kd worked out at 240 pM in assay [1]; 220 pM in [2]; 240 pM in assay [3]; 290 pM in assay [4]; 190 pM in assay [5]; 190 pM in assay [6]. For the same molecule, the Kd in [7] was 160 pM; in [8], 310 pM; in assay [9], 160 pM; in [10], 990 pM; in assay [11], 930 pM.
